In patent US20130101595A1 (AbbVie / Abbott, published 2013):

T1: IL-18 peptide NRPLFEDMTDSDCR (SEQ ID NO: 36) (human)
T1 peptide: NRPLFEDMTDSDCR

T2: IL-18 peptide PLFEDMTDSDCRDNA (SEQ ID NO: 1) (human)
T2 peptide: PLFEDMTDSDCRDNA

B1: 2E1 (parent) ScFv (scFv, V domains shown)
VH: QVQLVQSGAEVKKPGASMKVSCKTSGYTFTGYYIHWVRQAHGQGFEWIGRLNPTTGDANFAEKFQGRVALTRDTSISTAYLQLDSLKSDDTAVYYCAGKEGAWGQGTLVTVSS
VL: SSELTQDPAVSVALGQTVRITCQGDSLRHFYPNWYQQKPGQAPVLVIYGKNNRPSGIPDRFSGSGSGNTGSLTITGAQAEDEADYYCGSRDSSGIHVVFGGGTKVTVLG
notes: Tested as single-chain Fv; also called single chain Fv version of antibody 2E1; 2E1 single chain antibody
B2: 2E1 mutant L34S + H53R + H58Q (scFv, V domains shown)
VH: QVQLVQSGAEVKKPGASMKVSCKTSGYTFTGYYIHWVRQAHGQGFEWIGRLNPRTGDAQFAEKFQGRVALTRDTSISTAYLQLDSLKSDDTAVYYCAGKEGAWGQGTLVTVSS
VL: SSELTQDPAVSVALGQTVRITCQGDSLRHFYPSWYQQKPGQAPVLVIYGKNNRPSGIPDRFSGSGSGNTGSLTITGAQAEDEADYYCGSRDSSGIHVVFGGGTKVTVLG
B3: 2E1 (parent) IgG (antibody, V domains shown)
VH: QVQLVQSGAEVKKPGASMKVSCKTSGYTFTGYYIHWVRQAHGQGFEWIGRLNPTTGDANFAEKFQGRVALTRDTSISTAYLQLDSLKSDDTAVYYCAGKEGAWGQGTLVTVSS
VL: SSELTQDPAVSVALGQTVRITCQGDSLRHFYPNWYQQKPGQAPVLVIYGKNNRPSGIPDRFSGSGSGNTGSLTITGAQAEDEADYYCGSRDSSGIHVVFGGGTKVTVLG
B4: 2E1 mutant L34S (scFv, V domains shown)
VH: QVQLVQSGAEVKKPGASMKVSCKTSGYTFTGYYIHWVRQAHGQGFEWIGRLNPTTGDANFAEKFQGRVALTRDTSISTAYLQLDSLKSDDTAVYYCAGKEGAWGQGTLVTVSS
VL: SSELTQDPAVSVALGQTVRITCQGDSLRHFYPSWYQQKPGQAPVLVIYGKNNRPSGIPDRFSGSGSGNTGSLTITGAQAEDEADYYCGSRDSSGIHVVFGGGTKVTVLG
B5: 2E1 mutant H53R (scFv, V domains shown)
VH: QVQLVQSGAEVKKPGASMKVSCKTSGYTFTGYYIHWVRQAHGQGFEWIGRLNPRTGDANFAEKFQGRVALTRDTSISTAYLQLDSLKSDDTAVYYCAGKEGAWGQGTLVTVSS
VL: SSELTQDPAVSVALGQTVRITCQGDSLRHFYPNWYQQKPGQAPVLVIYGKNNRPSGIPDRFSGSGSGNTGSLTITGAQAEDEADYYCGSRDSSGIHVVFGGGTKVTVLG
B6: 2E1 mutant L34S + H53R (2E1RS) (scFv, V domains shown)
VH: QVQLVQSGAEVKKPGASMKVSCKTSGYTFTGYYIHWVRQAHGQGFEWIGRLNPRTGDANFAEKFQGRVALTRDTSISTAYLQLDSLKSDDTAVYYCAGKEGAWGQGTLVTVSS
VL: SSELTQDPAVSVALGQTVRITCQGDSLRHFYPSWYQQKPGQAPVLVIYGKNNRPSGIPDRFSGSGSGNTGSLTITGAQAEDEADYYCGSRDSSGIHVVFGGGTKVTVLG
B7: 2E1 mutant L34S + H53Y (scFv, V domains shown)
VH: QVQLVQSGAEVKKPGASMKVSCKTSGYTFTGYYIHWVRQAHGQGFEWIGRLNPYTGDANFAEKFQGRVALTRDTSISTAYLQLDSLKSDDTAVYYCAGKEGAWGQGTLVTVSS
VL: SSELTQDPAVSVALGQTVRITCQGDSLRHFYPSWYQQKPGQAPVLVIYGKNNRPSGIPDRFSGSGSGNTGSLTITGAQAEDEADYYCGSRDSSGIHVVFGGGTKVTVLG

Tests used:
[1] = target: T3, recombinant human IL-18 (rhIL-18) (human, UniProt Q14116 37-193, biotinylated (D-biotinyl-epsilon-aminocaproic acid NHS ester, 2:1 molar ratio of biotin to rhIL-18) in the BIAcore assay; not said to be biotinylated in the KG-1 assay); assay: SPR (BIAcore), biotinylated rhIL-18 on streptavidin chip, antibody in solution
T3 construct: also called full length human IL-18; biotinylated rhIL-18
Protocol: Real-time binding interactions between ligand (biotinylated recombinant human IL-18 (rhIL-18) immobilized on a biosensor matrix) and analyte (antibodies in solution) were measured by surface plasmon resonance (SPR) using the BIAcore system (Pharmacia Biosensor, Piscataway, N.J.). The system utilizes the optical properties of SPR to detect alterations in protein concentrations within a dextran biosensor matrix. Proteins are covalently bound to the dextran matrix at known concentrations. Antibodies are injected through the dextran matrix and specific binding between injected antibodies and immobilized ligand results in an increased matrix protein concentration and resultant change in the SPR signal.
Biotinylated rhIL-18 to be immobilized on the matrix via streptavidin was diluted in PBS running buffer (Gibco Cat. No. 14190-144, Gibco BRL, Grand Island, N.Y.) supplemented with 0.05% (BIAcore) surfactant P20 (Pharmacia BR-1000-54, Pharmacia Biosensor, Piscataway, N.J.). To determine the capacity of rhIL-18-specific antibodies to bind immobilized rhIL-18, a binding assay was conducted as follows. Aliquots of biotinylated rhIL-18 (25 nM; 10 μl aliquots) were injected through the streptavidin-coupled dextran matrix at a flow rate of 5 μl/min. Before injection of the protein and immediately afterward, PBS buffer alone flowed through each flow cell. The net difference in signal between baseline and approximately 30 sec. after completion of biotinylated rhIL-18 injection was taken to represent the binding value. Direct rhIL-18-specific antibody binding to immobilized biotinylated rhIL-18 was measured. Antibodies (20 μg/ml) were diluted in PBS running buffer and 25 μl aliquots were injected through the immobilized protein matrices at a flow rate of 5 μl/min. Prior to injection of antibody, and immediately afterwards, PBS buffer alone flowed through each flow cell. The net difference in baseline signal and signal after completion of antibody injection was taken to represent the binding value of the particular sample. Biosensor matrices were regenerated using 100 mM HCl before injection of the next sample.

[2] = target: T3, recombinant human IL-18 (rhIL-18); assay: cell-based or functional assay
[3] = target: T1, IL-18 peptide NRPLFEDMTDSDCR (SEQ ID …); assay: overlapping IL-18 peptide panel
[4] = target: T2, IL-18 peptide PLFEDMTDSDCRDNA (SEQ ID …); assay: told in a figure legend; 2E1 selected by phage display on an IL-18 peptide epitope
[5] = target: T3, recombinant human IL-18 (rhIL-18); assay: cell-based or functional assay; remark: listed apart in the source
[6] = target: T3, recombinant human IL-18 (rhIL-18); assay: SPR (BIAcore), biotinylated rhIL-18 on streptavidin chip
[7] = target: T3, recombinant human IL-18 (rhIL-18); assay: SPR (BIAcore), biotinylated rhIL-18, scFv

Binder	IC50 Value, KG-1 cell-based IL-18 neutralization assay (hIFN-gamma) [2] [nM]	koff [1] [s⁻¹]	also measured
B1	33	–	kon [1]: 2600 M⁻¹ s⁻¹; binding result [3]: binds; binding result [4]: binds
B2	2.8	6.18e-05	–
B3	0.9	–	–
B4	15	0.000169	–
B5	25	0.00234	–
B6	3	6.82e-05	Kd [1]: 23 nM; kon [1]: 2700 M⁻¹ s⁻¹; fold improvement over the parent antibody 2E1, KG-1 cell-based assay [5]: > 10 fold; fold improvement over the parent antibody 2E1 (BIAcore analysis) [6]: > 10 fold; fold improvement over the parent antibody 2E1 [7]: > 10 fold
B7	6.7	5.28e-05	–
